The record followed here is PMC8939814.

The target in the test is CXCR2 (human) (UniProt P25025).
Chain of UniProt P25025 (P25025 whole entry): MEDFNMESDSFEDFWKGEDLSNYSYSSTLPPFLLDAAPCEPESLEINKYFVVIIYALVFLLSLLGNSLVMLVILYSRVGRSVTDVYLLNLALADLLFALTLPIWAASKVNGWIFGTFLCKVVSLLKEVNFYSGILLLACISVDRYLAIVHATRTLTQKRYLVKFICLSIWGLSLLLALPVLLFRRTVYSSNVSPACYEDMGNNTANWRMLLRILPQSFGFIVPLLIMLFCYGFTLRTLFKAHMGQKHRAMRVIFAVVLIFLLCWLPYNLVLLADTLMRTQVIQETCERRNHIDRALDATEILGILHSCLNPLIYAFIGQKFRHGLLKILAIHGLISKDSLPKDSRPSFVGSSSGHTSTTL

For “vCXCL1_(GT5 (6–97)), N-terminally truncated vCXCL1GT5 (domain or fragment)”, the IP accumulation (G protein signaling, Gqi4myr) in transfected COS-7 cells, agonism at 1 μM (% of the efficacy of CXCL8 on CXCR2) came to 29.

Turning to “vCXCL1_(GT5 (4–97)), N-terminally truncated vCXCL1GT5 (domain or fragment)”, the IP accumulation (G protein signaling, Gqi4myr) in transfected COS-7 cells, agonism at 1 μM (% of the efficacy of CXCL8 on CXCR2) was found to be 31.

“vCXCL1GT5, the non-ELR CXC chemokine encoded by HCMV UL146 genotype 5 (Davis strain), wild type (1–97) (ligand)” yielded an IP accumulation (G protein signaling, Gqi4myr) in transfected COS-7 cells, agonism at 1 μM (% of the maximal activity of CXCL8) of 60.
